± gives the uncertainty stated by the source.
Experiment: self-splicing fitness, log relative to wild type (ln ratio); higher = more splicing; Tetrahymena group I intron in knt gene, E. coli kanamycin selection, DiMSum; sequences stand for … in CUCUCU…GGAGGGAAAAGUUAUCAGGCAUGCACCUGGUAGCUAGUCUUUAAACCAAUAGAUUGCAUCGGUUUAAAAGGCAAGACCGUCAAAUUGCGGGAAAGGGGUCAACAGCCGUUCAGUACCAAGUCUCAGGGGAAACUUUGAGAUGGCCUUGCAAAGGGUAUGGUAAUAAGCUGACGGACAUGGUCCUAACCACGCAGCCAAGUCCUAAGUCAACAGAUCUUCUGUUGAUAUGGAUGCAGUUCACAGACUAAAUGUCGGUCGGGGAAGAUGUAUUCUUCUCAUAAGAUAUAGUCGGACCUCUCCUUAAUGGGAGCUAGCGGAUGAAGUGAUGCAACACUGGAGCCGCUGGGAACUAAUUUGUAUGCGAAAGUAUAUUGAUUAGUUUUGGAGUACUCGUGGUCG
Method in brief: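 Library with all eight P1ex-region intron nucleotides randomised, intron inside the knt kanamycin-resistance gene on pET-22b(+), in E. coli BL21(DE3). Cells grew overnight at 37°C or 30°C on LB agar with or without 25 μg/mL kanamycin (plus 100 μg/mL carbenicillin, 50 μM IPTG, 0.2% rhamnose), in six replicate transformations. Pooled colonies were amplicon-sequenced on Illumina HiSeq 2500. DiMSum fitness is the error-weighted combination of wild-type-normalised replicate fold changes, kanamycin versus none.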

| Sequence | self-splicing fitness (ln) (30 °C) | self-splicing fitness (ln) (37 °C) |
| --- | --- | --- |
| CGUUAGCAAUAUUACGCAAA | -2.53 ± 0.36 | -2.67 ± 0.48 |
| CGUUAGCAAUAUUACGCAAU | – | -1.02 ± 0.23 |
| CGUUAGCAAUAUUACGCAUG | -1.13 ± 0.12 | -0.626 ± 0.17 |
| CGUUAGCAAUAUUACGCUCA | -0.383 ± 0.14 | -0.384 ± 0.15 |
| CGUUAGCAAUAUUACGCUGU | -2.88 ± 0.22 | -2.71 ± 0.33 |
| CGUUAGCAAUAUUACGCUUG | -1.71 ± 0.12 | -1.26 ± 0.15 |
| CGUUAGCAAUAUUACGGAAC | -3.05 ± 0.48 | -2.4 ± 0.41 |
| CGUUAGCAAUAUUACGGAUA | -1.83 ± 0.37 | -2.08 ± 0.31 |
| CGUUAGCAAUAUUACGGAUU | -2.33 ± 0.23 | -2.21 ± 0.24 |
| CGUUAGCAAUAUUACGGCGC | – | -2.24 ± 0.32 |
| CGUUAGCAAUAUUACGGGCU | -1.6 ± 0.099 | -1.46 ± 0.16 |
| CGUUAGCAAUAUUACGGGGG | -4.81 ± 0.45 | -3.46 ± 0.29 |
| CGUUAGCAAUAUUACGGGUA | -3.15 ± 0.37 | -2.08 ± 0.2 |
| CGUUAGCAAUAUUACGUAAU | -2.88 ± 0.24 | -1.63 ± 0.25 |
| CGUUAGCAAUAUUACGUAUC | – | -2.15 ± 0.28 |
| CGUUAGCAAUAUUACGUCUC | – | -1.86 ± 0.35 |
| CGUUAGCAAUAUUACGUGCC | -2.8 ± 0.31 | -1.59 ± 0.29 |
| CGUUAGCAAUAUUACGUUCC | – | -1.47 ± 0.45 |
| CUAAAGCAAUAUUACGAAGU | -4.21 ± 0.26 | -2.57 ± 0.28 |
| CUAAAGCAAUAUUACGACAA | -2.42 ± 0.15 | -1.2 ± 0.19 |
| CUAAAGCAAUAUUACGACGC | – | -1.39 ± 0.45 |
| CUAAAGCAAUAUUACGAGCA | -3.41 ± 0.25 | -1.08 ± 0.2 |
| CUAAAGCAAUAUUACGAGUU | -2.84 ± 0.32 | -1.85 ± 0.26 |
| CUAAAGCAAUAUUACGCGAA | -3.71 ± 0.25 | -2.63 ± 0.36 |
| CUAAAGCAAUAUUACGCGCU | -3.15 ± 0.16 | -2.06 ± 0.23 |

| Sequence | self-splicing fitness (ln) (30 °C) | self-splicing fitness (ln) (37 °C) |
| --- | --- | --- |
| CUAAAGCAAUAUUACGCGGC | -1.21 ± 0.13 | -1.28 ± 0.17 |
| CUAAAGCAAUAUUACGCUCA | -3.67 ± 0.25 | -2.39 ± 0.19 |
| CUAAAGCAAUAUUACGGAAA | -4.24 ± 0.37 | -2.44 ± 0.35 |
| CUAAAGCAAUAUUACGGACU | -3.93 ± 0.25 | -1.9 ± 0.27 |
| CUAAAGCAAUAUUACGGAGC | -3.27 ± 0.31 | -1.2 ± 0.29 |
| CUAAAGCAAUAUUACGGAUC | -2.3 ± 0.21 | – |
| CUAAAGCAAUAUUACGGCUU | -3.8 ± 0.21 | -2.44 ± 0.29 |
| CUAAAGCAAUAUUACGGGAG | -0.542 ± 0.056 | 0.188 ± 0.077 |
| CUAAAGCAAUAUUACGGUUC | -4.09 ± 0.2 | -2.68 ± 0.18 |
| CUAAAGCAAUAUUACGUAGU | -4.53 ± 0.2 | -2.59 ± 0.17 |
| CUAAAGCAAUAUUACGUGUU | -4.79 ± 0.19 | -2.91 ± 0.16 |
| CUAAAGCAAUAUUACGUUAG | -2.33 ± 0.093 | -1.77 ± 0.1 |
| CUAAAGCAAUAUUACGUUAU | -4.11 ± 0.21 | -3.34 ± 0.26 |
| CUAAAGCAAUAUUACGUUUG | -1.47 ± 0.075 | -0.672 ± 0.092 |
| CUACAGCAAUAUUACGAAAC | -3.35 ± 0.26 | -2.37 ± 0.39 |
| CUACAGCAAUAUUACGAACG | 0.241 ± 0.11 | 0.6 ± 0.14 |
| CUACAGCAAUAUUACGACAU | -3.878 ± 0.021 | -2.67 ± 0.037 |
| CUACAGCAAUAUUACGACCA | -2.7 ± 0.3 | -2.31 ± 0.35 |
| CUACAGCAAUAUUACGAUUC | -4.31 ± 0.43 | -1.6 ± 0.24 |
| CUACAGCAAUAUUACGCCCU | -3.11 ± 0.2 | -2.85 ± 0.29 |
| CUACAGCAAUAUUACGCCUC | -3.9 ± 0.3 | -0.901 ± 0.34 |
| CUACAGCAAUAUUACGCGGA | -3.06 ± 0.25 | -3 ± 0.27 |
| CUACAGCAAUAUUACGCUCU | -4.15 ± 0.25 | -2.74 ± 0.29 |
| CUACAGCAAUAUUACGGAAG | -1.46 ± 0.085 | -0.751 ± 0.11 |
| CUACAGCAAUAUUACGGAGA | -4.39 ± 0.42 | -2.27 ± 0.27 |

| Sequence | self-splicing fitness (ln) (30 °C) | self-splicing fitness (ln) (37 °C) |
| --- | --- | --- |
| CUACAGCAAUAUUACGGGAC | -2.98 ± 0.14 | -2.06 ± 0.15 |
| CUACAGCAAUAUUACGGGCA | -2.76 ± 0.18 | -2.21 ± 0.21 |
| CUACAGCAAUAUUACGUAAU | -3.8 ± 0.19 | -2.84 ± 0.18 |
| CUACAGCAAUAUUACGUACU | -3.15 ± 0.14 | -1.05 ± 0.15 |
| CUACAGCAAUAUUACGUGAC | -1.02 ± 0.09 | -0.853 ± 0.14 |
| CUACAGCAAUAUUACGUGCG | -1.75 ± 0.081 | -0.715 ± 0.089 |
| CUAGAGCAAUAUUACGACAA | -2.53 ± 0.32 | -1.84 ± 0.34 |
| CUAGAGCAAUAUUACGAUGC | -2.31 ± 0.42 | -1.94 ± 0.43 |
| CUAGAGCAAUAUUACGCAAG | -1.8 ± 0.096 | -0.42 ± 0.11 |
| CUAGAGCAAUAUUACGCACG | -0.957 ± 0.15 | -0.23 ± 0.24 |
| CUAGAGCAAUAUUACGCAUC | -3.92 ± 0.29 | -2.65 ± 0.45 |
| CUAGAGCAAUAUUACGCCCG | -0.259 ± 0.2 | 0.187 ± 0.18 |
| CUAGAGCAAUAUUACGCGAC | -0.657 ± 0.13 | 0.181 ± 0.16 |
| CUAGAGCAAUAUUACGCGUG | -0.446 ± 0.1 | -0.476 ± 0.12 |
| CUAGAGCAAUAUUACGGAGG | -1.49 ± 0.13 | -1.98 ± 0.16 |
| CUAGAGCAAUAUUACGGUAA | -3.52 ± 0.29 | -1.5 ± 0.16 |
| CUAGAGCAAUAUUACGGUCG | 0.342 ± 0.11 | -0.264 ± 0.13 |
| CUAGAGCAAUAUUACGUACG | -0.818 ± 0.082 | 0.268 ± 0.12 |
| CUAGAGCAAUAUUACGUAGU | -2.72 ± 0.22 | -1.94 ± 0.33 |
| CUAGAGCAAUAUUACGUAUA | -3.08 ± 0.49 | – |
| CUAGAGCAAUAUUACGUCGG | -0.971 ± 0.095 | -0.975 ± 0.1 |
| CUAGAGCAAUAUUACGUCUC | -3.75 ± 0.2 | -2.76 ± 0.25 |
| CUAGAGCAAUAUUACGUGAC | -1.08 ± 0.12 | -1.31 ± 0.17 |
| CUAGAGCAAUAUUACGUUCA | -3.21 ± 0.24 | -1.36 ± 0.29 |
| CUAGAGCAAUAUUACGUUGA | -4.21 ± 0.34 | -3.11 ± 0.38 |

| Sequence | self-splicing fitness (ln) (30 °C) | self-splicing fitness (ln) (37 °C) |
| --- | --- | --- |
| CUAUAGCAAUAUUACGAAUU | -2.02 ± 0.39 | -2.26 ± 0.46 |
| CUAUAGCAAUAUUACGACAA | -2.79 ± 0.5 | -2.64 ± 0.44 |
| CUAUAGCAAUAUUACGACGC | -3.02 ± 0.36 | -2.14 ± 0.38 |
| CUAUAGCAAUAUUACGAGCA | -2.91 ± 0.25 | -2.36 ± 0.33 |
| CUAUAGCAAUAUUACGAGUC | -2.61 ± 0.24 | -2.52 ± 0.3 |
| CUAUAGCAAUAUUACGAUUC | -3.51 ± 0.26 | -1.71 ± 0.21 |
| CUAUAGCAAUAUUACGCAAU | -3.66 ± 0.24 | -1.58 ± 0.21 |
| CUAUAGCAAUAUUACGCCGG | -1.65 ± 0.21 | -0.422 ± 0.25 |
| CUAUAGCAAUAUUACGCGUA | -1.43 ± 0.31 | -2.86 ± 0.31 |
| CUAUAGCAAUAUUACGCGUG | -1.27 ± 0.1 | -0.122 ± 0.12 |
| CUAUAGCAAUAUUACGGAAC | – | -1.63 ± 0.49 |
| CUAUAGCAAUAUUACGGACU | – | -1.89 ± 0.31 |
| CUAUAGCAAUAUUACGGAUG | -0.942 ± 0.11 | -0.343 ± 0.11 |
| CUAUAGCAAUAUUACGGCCG | 0.0895 ± 0.15 | -0.314 ± 0.15 |
| CUAUAGCAAUAUUACGGGGC | – | -1.7 ± 0.33 |
| CUAUAGCAAUAUUACGUACA | -2.36 ± 0.17 | -2.05 ± 0.2 |
| CUAUAGCAAUAUUACGUAGC | -4.05 ± 0.31 | -3.11 ± 0.43 |
| CUAUAGCAAUAUUACGUGAU | -1.33 ± 0.066 | -0.295 ± 0.1 |
| CUAUAGCAAUAUUACGUUAA | -4.29 ± 0.47 | -3.36 ± 0.42 |
| CUAUAGCAAUAUUACGUUUG | -1.38 ± 0.084 | -1.11 ± 0.11 |
| CUCAAGCAAUAUUACGAACG | -1.54 ± 0.089 | -0.932 ± 0.12 |
| CUCAAGCAAUAUUACGACUU | -2.2 ± 0.18 | – |
| CUCAAGCAAUAUUACGAGAA | -1.89 ± 0.31 | -1.1 ± 0.24 |
| CUCAAGCAAUAUUACGAGAG | -3.27 ± 0.22 | -1.81 ± 0.23 |

From the supplement of paper PMC7877785
